Results: patent US20120093719A1 (PROSCAN RX PHARMA, published 2012)
Blank lines part the entries; values can stand above or below the binder they belong to.

Legend:
[1] = biological target: T1, prostate specific membrane antigen (PSMA) (human, UniProt Q04609 1-750); experiment: ELISA, serially diluted antibody on membrane preparation of PSMA-expressing LNCaP cells against PSMA-negative PC-3
T1 construct: whole, on cells; In the assays PSMA stood as endogenous protein in LNCaP cell membrane preparations (ELISA) or LNCaP lysate (western blot); The background says PSMA forms a noncovalent homodimer
Protocol: FIG. 4: immunoreactivity mAb1 to cancer cell line. Serially diluted purified antibody was tested by ELISA on a cell membrane preparation that express PSMA (LNCaP) or not (PC-3). The antibody reacts strongly with the LNCaP preparation while the PC-3 remains unreactive;
Immunoreactivity of mAb1_against cancer cell line was tested by ELISA. Serially diluted purified antibody was tested on a cell membrane preparation that express PSMA (LNCaP) or not (PC-3).

[2] = biological target: T1, prostate specific membrane antigen …; experiment: ELISA on LNCaP or PC-3 membrane preparation
Protocol: An ELISA assay was used to test the reactivity and specificity of purified chimeric anti-PSMA antibodies. Briefly, 96-well plates (Immulon 2HB) were coated overnight at 4° C. or for 2 h at 37° C. with 100 uL of PBS containing 5 ug of cell membrane preparation. Plates were washed four times with 200 uL of 10 mM Tris-HCl, 150 mM NaCl, and 0.1% Tween-20 (TBST, pH 7.5), and blocked for 1 h with 200 uL of TBST containing 5% FBS. Plates were then washed and incubated for 1 h at room temperature using 100 uL of serially diluted purified chimeric anti-PSMA antibodies in TBST containing 5% FBS. Antibody binding was detected by the sequential addition, followed by washing, of 100 uL of horseradish peroxidase (HRP) conjugated goat anti-human IgG whole molecule (Jackson Immunoresearch) diluted 1:5000 in TBST containing 5% FBS, for 1 h at room temperature, and 100 uL of HRP colorimetric substrate solution 3,3′,5,5′-tetramethylbenzidine (BioFX Laboratories). The reaction was stopped with the addition of 100 uL of 0.5 M sulphuric acid and the absorbance was read at 450 nm in a microplate reader (Bio-Tek Instruments).
The reactivity of the DOTA conjugated antibody (chAb1-DOTA) was compared to the unconjugated antibody (chAb1) by ELISA on a cell membrane preparation that express PSMA (LNCaP) or not (PC-3) (FIG. 14).

[3] = biological target: T1, prostate specific membrane antigen …; experiment: ELISA after 5 days at 37 C in 0.1M glycine buffered with Tris to pH 7.4

T1 sequence (Q04609 whole entry): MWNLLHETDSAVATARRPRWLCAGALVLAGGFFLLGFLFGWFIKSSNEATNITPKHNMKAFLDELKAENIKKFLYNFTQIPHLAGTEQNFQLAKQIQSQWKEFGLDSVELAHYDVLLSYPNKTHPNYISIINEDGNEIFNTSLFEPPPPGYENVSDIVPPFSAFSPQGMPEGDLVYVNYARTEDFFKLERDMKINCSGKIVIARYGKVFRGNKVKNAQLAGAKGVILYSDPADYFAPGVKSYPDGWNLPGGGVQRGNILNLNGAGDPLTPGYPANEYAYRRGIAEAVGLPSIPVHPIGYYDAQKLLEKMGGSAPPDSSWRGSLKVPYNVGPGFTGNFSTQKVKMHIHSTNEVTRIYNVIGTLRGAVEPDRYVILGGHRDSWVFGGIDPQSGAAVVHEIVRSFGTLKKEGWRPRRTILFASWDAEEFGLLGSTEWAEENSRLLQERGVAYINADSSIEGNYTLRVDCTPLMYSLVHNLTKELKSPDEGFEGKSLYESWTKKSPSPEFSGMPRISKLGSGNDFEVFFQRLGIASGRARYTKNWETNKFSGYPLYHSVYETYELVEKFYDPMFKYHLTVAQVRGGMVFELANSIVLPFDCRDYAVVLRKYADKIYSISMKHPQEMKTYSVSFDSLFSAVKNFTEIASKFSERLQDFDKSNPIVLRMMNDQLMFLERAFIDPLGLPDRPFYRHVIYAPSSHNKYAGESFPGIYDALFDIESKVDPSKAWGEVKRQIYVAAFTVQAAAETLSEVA

binding result [1]: binds
B1: murine monoclonal anti-PSMA antibody mAb1 (antibody, V domains shown)
VH: EVQLQQSGAELVKPGASVKLSCTASGFNIKDTYMHWVKQRPEQGLEWIGGIDPADGETKYDPKFQDKATITTDTSSNTVYLQISSLTSEDTAVYYCVRSFDYWGQGTTLTVSS
VL: DVVMTQTPLSLPVSLGDQASISCRSSQSLVHSNGNTYLHWYLQKPGQSPKFLIYKASNRFSGVPDRFSGRGSGTDFTLKISRVEAEDLGVYFCFQSTHVPYTFGGGTKLEIKR
notes: also called murine anti-PSMA antibody; murine parental antibody

binding result [2]: binds
B2: DOTA-conjugated chimeric anti-PSMA antibody chAb1-DOTA (antibody, V domains shown)
VH: B1 VH
VL: B1 VL
modifications: DOTA conjugated through DOTA-NHS ester; sites and chain not stated
notes: also called DOTA conjugated antibody

binding result [3]: binds
B3: murine/human chimeric anti-PSMA antibody chAb1 (antibody, human IgG1, kappa, V domains shown)
VH: B1 VH
VL: B1 VL
notes: also called chimeric antibody
